Test results published in patent US20220017617A1 (SHANGHAI EPIMAB BIOTHERAPEUTICS, published 2022).

Experiments:
[1] = target: T1, recombinant human PD-L1 (Novoprotein) (human, UniProt Q9NZQ7 19-239, limits assumed); experiment: BLI (Octet RED96), FIT-Ig captured on anti-human IgG Fc sensors, antigen in solution, 1:1 fit
T1 construct: Bought reagent; also called Programmed Death Ligand 1; CD274
Experimental: (§1) Briefly, each parental mAb and FIT-Ig was characterized for affinities and binding kinetics by Octet®RED96 biolayer interferometry (Pall FortéBio LLC). Each parental mAb and FIT-Ig were captured by Anti-Human IgG Fc Capture (AHC) Biosensors (Pall) at a concentration of 100 nM for 30 seconds. Sensors were then dipped into running buffer (1X, pH 7.2, PBS, 0.05% Tween 20, 0.1% BSA) for 60 seconds to check baseline. Binding was measured by dipping sensors into […] recombinant human PD-L1 (Novoprotein) or recombinant human EGFR (Sino Biological Inc) both ranging from 1 nM to 200 nM. Dissociation was followed by dipping sensors into running buffer for 1200 seconds. The association and dissociation curves were fitted to a 1:1 Langmuir binding model using ForteBio Data Analysis software (Pall).

[2] = target: T2, recombinant human EGFR (Sino Biological Inc) (human, UniProt P00533 25-645); experiment: as above
T2 construct: Bought reagent; also called epidermal growth factor receptor
Experimental: as §1

[3] = target: T1, recombinant human PD-L1 (Novoprotein); experiment: BLI (Octet RED96), antibody captured on anti-human IgG Fc sensors, antigen in solution, 1:1 fit
Experimental: as §1

[4] = target: T1, recombinant human PD-L1 (Novoprotein); experiment: BLI (Octet RED96), comparison of KD values
Experimental: as §1

[5] = target: T2, recombinant human EGFR (Sino Biological …); experiment: BLI (Octet RED96), comparison of KD values
Experimental: as §1

T1 sequence (Q9NZQ7 19-239 limits assumed): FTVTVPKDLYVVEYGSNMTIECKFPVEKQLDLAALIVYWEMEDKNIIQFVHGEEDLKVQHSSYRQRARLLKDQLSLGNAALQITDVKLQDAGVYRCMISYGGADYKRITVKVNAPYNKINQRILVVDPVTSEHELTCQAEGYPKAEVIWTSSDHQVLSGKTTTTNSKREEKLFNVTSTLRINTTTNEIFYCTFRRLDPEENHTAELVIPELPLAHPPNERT

Kd [1] | koff [1] | kon [1] | Kd [2] | koff [2] | kon [2] | Kd [3] | koff [3] | kon [3] | KD higher than that of the parental mAb 3G10 [4] | KD lower than that of the parental panitumumab [5] | Binder
11.1 nM | 0.0156 s⁻¹ | 1.4e+06 M⁻¹ s⁻¹ | 0.379 nM | 6.14e-05 s⁻¹ | 162000 M⁻¹ s⁻¹ | – | – | – | – | – | PD-L1/EGFR FIT-Ig5 (bispecific antibody, human IgG1, kappa, Six-chain hexamer with no linkers; Human IgG1 Fc) heavy: not shown QVQLVQSGAEVKKPGASVKVSCKASGYTFTDYGFSWVRQAPGQGLEWMGWITAYNGNTNYAQKLQGRVTMTTDTSTSTVYMELRSLRSDDTAVYYCARDYFYGMDVWGQGTTVTVSSASTKGPSVFPLAPSSKSTSGGTAALGCLVKDYFPEPVTVSWNSGALTSGVHTFPAVLQSSGLYSLSSVVTVPSSSLGTQTYICNVNHKPSNTKVDKKVEPKSC light: not shown
– | – | – | – | – | – | 12.5 nM | 0.0122 s⁻¹ | 979000 M⁻¹ s⁻¹ | – | – | anti-PD-L1 monoclonal antibody 3G10 (parental) (antibody, V domains shown, It was captured by anti-human IgG Fc sensors; also called mAb 3G10; parental anti-PD-L1 mAb 3G10) VH: QVQLVQSGAEVKKPGASVKVSCKASGYTFTDYGFSWVRQAPGQGLEWMGWITAYNGNTNYAQKLQGRVTMTTDTSTSTVYMELRSLRSDDTAVYYCARDYFYGMDVWGQGTTVTVSS VL: EIVLTQSPATLSLSPGERATLSCRASQSVSSYLVWYQQKPGQAPRLLIYDASNRATGIPARFSGSGSGTDFTLTISSLEPEDFAVYYCQQRSNWPRTFGQGTKVEIK
16.3 nM | 0.0144 s⁻¹ | 886000 M⁻¹ s⁻¹ | 0.491 nM | 0.000107 s⁻¹ | 218000 M⁻¹ s⁻¹ | – | – | – | ~30% | ~25% | EGFR/PD-L1 FIT-Ig6 (bispecific antibody, human IgG1, kappa, Six-chain hexamer with no linkers; Human IgG1 Fc) heavy: not shown QVQLQESGPGLVKPSETLSLTCTVSGGSVSSGDYYWTWIRQSPGKGLEWIGHIYYSGNTNYNPSLKSRLTISIDTSKTQFSLKLSSVTAADTAIYYCVRDRVTGAFDIWGQGTMVTVSSASTKGPSVFPLAPSSKSTSGGTAALGCLVKDYFPEPVTVSWNSGALTSGVHTFPAVLQSSGLYSLSSVVTVPSSSLGTQTYICNVNHKPSNTKVDKKVEPKSC light: not shown
